The source of these data is article PMC8675521, “Improved methanol tolerance of Rhizomucor miehei lipase based on N‑glycosylation within the α-helix region and its application in biodiesel production” (Biotechnology for Biofuels, 2021).

Substrate in the data set: CCCCCCCCCCCCCCCC(=O)Oc1ccc([N+](=O)[O-])cc1
As to the kind of experiment: purified protein. The format is biochemical, Rhizomucor miehei. Particulars: 50 mM PBS pH 8.0, 40 °C, 5 min.

The mark [1] stands for this setting: N218, made on N9A/N59A template, N-glycosylated.
The mark [2] stands for this setting: N93 [sic], made on N9A/N59A template, N-glycosylated.
[3] abbreviates: propeptide N-glycosylation sites removed.
[4] abbreviates: printed N183, made on N9A/N59A template, N-glycosylated.
Where [5] appears, read: N115, made on N9A/N59A template, N-glycosylated.
Where [6] appears, read: N260 [sic], made on N9A/N59A template, N-glycosylated.

B1: ProRML (Rhizomucor miehei lipase with propeptide) (Rhizomucor miehei) (protein)
chain: AVPIKRQSNSTVDSLPPLIPSRTSAPSSSPSTTDPEAPAMSRNGPLPSDVETKYGMALNATSYPDSVVQAMSIDGGIRAATSQEINELTYYTTLSANSYCRTVIPGATWDCIHCDATEDLKIIKTWSTLIYDTNAMVARGDSEKTIYIVFRGSSSIRNWIADLTFVPVSYPPVSGTKVHKGFLDSYGEVQNELVATVLDQFKQYPSYKVAVTGHSLGGATALLCALDLYQREEGLSSSNLFLYTQGQPRVGDPAFANYVVSTGIPYRRTVNERDIVPHLPPAAFGFLHAGEEYWITDNSPETVQVCTSDLETSDCSNSIVPFTSVLDHLSYFGINTGLCT
notes: propeptide plus mature peptide, plasmid pPIC9K (alpha-factor secretion), Pichia pastoris GS115, HisTrap purified; about 40 kDa unglycosylated, mutants about 55 kDa N-glycosylated
By Km is commonly meant the concentration of substrate that gives half-maximal velocity. As usually defined, the kcat is the maximal rate divided by the concentration of active sites. The term kcat/Km denotes the turnover number divided by the Michaelis constant. Regarding B1, the Km stood at 1160 µM, the kcat was found to be 1.75 ± 0.0493 s⁻¹ and the kcat/Km came to 1510 ± 42.5 M⁻¹ s⁻¹.

B2: ProRML (Rhizomucor miehei lipase with propeptide) (Rhizomucor miehei; G241N/N32A/N82A) (protein)
chain: AVPIKRQSASTVDSLPPLIPSRTSAPSSSPSTTDPEAPAMSRNGPLPSDVETKYGMALAATSYPDSVVQAMSIDGGIRAATSQEINELTYYTTLSANSYCRTVIPGATWDCIHCDATEDLKIIKTWSTLIYDTNAMVARGDSEKTIYIVFRGSSSIRNWIADLTFVPVSYPPVSGTKVHKGFLDSYGEVQNELVATVLDQFKQYPSYKVAVTGHSLGNATALLCALDLYQREEGLSSSNLFLYTQGQPRVGDPAFANYVVSTGIPYRRTVNERDIVPHLPPAAFGFLHAGEEYWITDNSPETVQVCTSDLETSDCSNSIVPFTSVLDHLSYFGINTGLCT
notes: as for B1
With B2, under setting [1], the Km was 13200 µM and the kcat/Km was found to be 64800 ± 1970 M⁻¹ s⁻¹.

B3: ProRML (Rhizomucor miehei lipase with propeptide) (Rhizomucor miehei; N32A/N82A/T116N) (protein)
chain: AVPIKRQSASTVDSLPPLIPSRTSAPSSSPSTTDPEAPAMSRNGPLPSDVETKYGMALAATSYPDSVVQAMSIDGGIRAATSQEINELTYYTNLSANSYCRTVIPGATWDCIHCDATEDLKIIKTWSTLIYDTNAMVARGDSEKTIYIVFRGSSSIRNWIADLTFVPVSYPPVSGTKVHKGFLDSYGEVQNELVATVLDQFKQYPSYKVAVTGHSLGGATALLCALDLYQREEGLSSSNLFLYTQGQPRVGDPAFANYVVSTGIPYRRTVNERDIVPHLPPAAFGFLHAGEEYWITDNSPETVQVCTSDLETSDCSNSIVPFTSVLDHLSYFGINTGLCT
notes: as for B1
With B3, under setting [2], the Km turned out to be 4700 µM, the kcat is 63.6 ± 2.62 s⁻¹ and the kcat/Km stood at 13500 ± 558 M⁻¹ s⁻¹.

B4: ProRML (Rhizomucor miehei lipase with propeptide) (Rhizomucor miehei; N32A/N82A) (protein)
chain: AVPIKRQSASTVDSLPPLIPSRTSAPSSSPSTTDPEAPAMSRNGPLPSDVETKYGMALAATSYPDSVVQAMSIDGGIRAATSQEINELTYYTTLSANSYCRTVIPGATWDCIHCDATEDLKIIKTWSTLIYDTNAMVARGDSEKTIYIVFRGSSSIRNWIADLTFVPVSYPPVSGTKVHKGFLDSYGEVQNELVATVLDQFKQYPSYKVAVTGHSLGGATALLCALDLYQREEGLSSSNLFLYTQGQPRVGDPAFANYVVSTGIPYRRTVNERDIVPHLPPAAFGFLHAGEEYWITDNSPETVQVCTSDLETSDCSNSIVPFTSVLDHLSYFGINTGLCT
notes: as for B1
Take B4: under setting [3], the Km came to 350 µM, the kcat stood at 0.844 ± 0.0385 s⁻¹ and the kcat/Km came to 2420 ± 111 M⁻¹ s⁻¹.

B5: ProRML (Rhizomucor miehei lipase with propeptide) (Rhizomucor miehei; L206N/N32A/N82A) (protein)
chain: AVPIKRQSASTVDSLPPLIPSRTSAPSSSPSTTDPEAPAMSRNGPLPSDVETKYGMALAATSYPDSVVQAMSIDGGIRAATSQEINELTYYTTLSANSYCRTVIPGATWDCIHCDATEDLKIIKTWSTLIYDTNAMVARGDSEKTIYIVFRGSSSIRNWIADLTFVPVSYPPVSGTKVHKGFNDSYGEVQNELVATVLDQFKQYPSYKVAVTGHSLGGATALLCALDLYQREEGLSSSNLFLYTQGQPRVGDPAFANYVVSTGIPYRRTVNERDIVPHLPPAAFGFLHAGEEYWITDNSPETVQVCTSDLETSDCSNSIVPFTSVLDHLSYFGINTGLCT
notes: as for B1
With B5, under setting [4], the Km came to 360 µM, the kcat turned out to be 1.186 ± 0.00633 s⁻¹ and the kcat/Km is 3258 ± 17.5 M⁻¹ s⁻¹.

B6: ProRML (Rhizomucor miehei lipase with propeptide) (Rhizomucor miehei; D138N/N32A/N82A) (protein)
chain: AVPIKRQSASTVDSLPPLIPSRTSAPSSSPSTTDPEAPAMSRNGPLPSDVETKYGMALAATSYPDSVVQAMSIDGGIRAATSQEINELTYYTTLSANSYCRTVIPGATWDCIHCNATEDLKIIKTWSTLIYDTNAMVARGDSEKTIYIVFRGSSSIRNWIADLTFVPVSYPPVSGTKVHKGFLDSYGEVQNELVATVLDQFKQYPSYKVAVTGHSLGGATALLCALDLYQREEGLSSSNLFLYTQGQPRVGDPAFANYVVSTGIPYRRTVNERDIVPHLPPAAFGFLHAGEEYWITDNSPETVQVCTSDLETSDCSNSIVPFTSVLDHLSYFGINTGLCT
notes: as for B1
As to B6, under setting [5], the Michaelis-Menten constant (Km) is 640 µM, the kcat came out at 7.26 ± 0.277 s⁻¹ and the kcat/Km turned out to be 11300 ± 432 M⁻¹ s⁻¹.

B7: ProRML (Rhizomucor miehei lipase with propeptide) (Rhizomucor miehei; N32A/N82A/V283N) (protein)
chain: AVPIKRQSASTVDSLPPLIPSRTSAPSSSPSTTDPEAPAMSRNGPLPSDVETKYGMALAATSYPDSVVQAMSIDGGIRAATSQEINELTYYTTLSANSYCRTVIPGATWDCIHCDATEDLKIIKTWSTLIYDTNAMVARGDSEKTIYIVFRGSSSIRNWIADLTFVPVSYPPVSGTKVHKGFLDSYGEVQNELVATVLDQFKQYPSYKVAVTGHSLGGATALLCALDLYQREEGLSSSNLFLYTQGQPRVGDPAFANYVNSTGIPYRRTVNERDIVPHLPPAAFGFLHAGEEYWITDNSPETVQVCTSDLETSDCSNSIVPFTSVLDHLSYFGINTGLCT
notes: as for B1
Consider B7, for which, under setting [6], the Km was found to be 1250 µM, the kcat worked out at 4.89 ± 0.149 s⁻¹ and the kcat/Km stood at 3930 ± 120 M⁻¹ s⁻¹.
